In US20250145729A1 (DENALI THERAPEUTICS, published 2025):

T1: circularly permuted human TfR apical domain (human)
T1 construct: TfR residues 326-379 stand N-terminal to 194-296, loop 297-325 deleted; also called huTfR Apical Domain
T1 chain: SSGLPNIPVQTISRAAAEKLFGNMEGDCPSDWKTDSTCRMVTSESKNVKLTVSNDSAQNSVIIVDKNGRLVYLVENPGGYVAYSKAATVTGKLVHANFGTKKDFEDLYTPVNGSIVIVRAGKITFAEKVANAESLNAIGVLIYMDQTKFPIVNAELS

T2: circularly permuted cyno TfR apical domain (cynomolgus monkey)
T2 construct: same design as the human construct; also called cyTfR Apical Domain; cynomolgus TfR apical domain
T2 chain: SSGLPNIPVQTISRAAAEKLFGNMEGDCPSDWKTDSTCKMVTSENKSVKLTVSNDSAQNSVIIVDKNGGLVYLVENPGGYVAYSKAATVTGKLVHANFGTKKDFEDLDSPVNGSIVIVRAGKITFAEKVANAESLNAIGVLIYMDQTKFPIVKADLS


Columns and labels:
[1] = target: T1, circularly permuted human TfR apical …; assay: SPR, supernatant, anti-Fab capture
Experimental: (§1) Clones were expressed in HEK293 cells. Supernatants were captured for SPR by GE Healthcare anti-human Fab capture kit and the affinity to human and cyno TfR apical domain was measured (Table 30). The clones in Table 30 were bivalent and each TfR-binding Fc polypeptide also contained P329G and LALA mutations.

[2] = target: T2, circularly permuted cyno TfR apical …; assay: SPR, supernatant, anti-Fab capture
Experimental: as §1

Binder	Kd [1]	Kd [2]
42.2 (Fc fusion, bivalent; P329G+LALA; also called 6.5.11.5.42.2) APEAAGGPSVFLFPPKPKDTLMISRTPEVTCVVVDVSHEDPEVKFNWYVDGVEVHNAKTKPREEQYNSTYRVVSVLTVLHQDWLNGKEYKCKVSNKALGAPIEKTISKAKGQPREPQVYTLPPSRDELTKNQVSLTCLVKGFYPSDIAVEWFSDGSKETNYKTTPPVLDSDGSFFLYSKLTVDKSRWQQGNLFACEVMHEALHNHYTYKLLSLSPGK	1 µM	7.5 µM
42.2.3-5 (Fc fusion, P329G+LALA) APEAAGGPSVFLFPPKPKDTLMISRTPEVTCVVVDVSHEDPEVKFNWYVDGVEVHNAKTKPREEQYNSTYRVVSVLTVLHQDWLNGKEYKCKVSNKALGAPIEKTISKAKGQPREPQVYTLPPSRDELTKNQVSLTCLVKGFYPSDIAVEWFYGNGKETNYKTTPPVLDSDGSFFLYSKLTVDKSRWQQGNLFACEVMHEALHNHYTYKLLSLSPGK	0.26 µM	1.8 µM
42.8.65 (Fc fusion, bivalent; P329G+LALA) APEAAGGPSVFLFPPKPKDTLMISRTPEVTCVVVDVSHEDPEVKFNWYVDGVEVHNAKTKPREEQYNSTYRVVSVLTVLHQDWLNGKEYKCKVSNKALGAPIEKTISKAKGQPREPQVYTLPPSRDELTKNQVSLTCLVKGFYPSDIAVEWFSDDQKLTNYKTTPPVLDSDGSFFLYSKLTVDKSRWQQGNLFACEVMHEALHNHYTYKLLSLSPGK	3.94 µM	10.3 µM
42.8.15 (Fc fusion, bivalent; P329G+LALA) APEAAGGPSVFLFPPKPKDTLMISRTPEVTCVVVDVSHEDPEVKFNWYVDGVEVHNAKTKPREEQYNSTYRVVSVLTVLHQDWLNGKEYKCKVSNKALGAPIEKTISKAKGQPREPQVYTLPPSRDELTKNQVSLTCLVKGFYPSDIAVEWFSGAQKESNYKTTPPVLDSDGSFFLYSKLTVDKSRWQQGNLFACEVMHEALHNHYTYKLLSLSPGK	5.96 µM	27 µM
42.2.1-20 (Fc fusion, P329G+LALA) APEAAGGPSVFLFPPKPKDTLMISRTPEVTCVVVDVSHEDPEVKFNWYVDGVEVHNAKTKPREEQYNSTYRVVSVLTVLHQDWLNGKEYKCKVSNKALGAPIEKTISKAKGQPREPQVYTLPPSRDELTKNQVSLTCLVKGFYPSDIAVEWFADASKQRNYKTTPPVLDSDGSFFLYSKLTVDKSRWQQGNLFACEVMHEALHNHYTYKLLSLSPGK	0.44 µM	7 µM
42.2.19 (Fc fusion, P329G+LALA) APEAAGGPSVFLFPPKPKDTLMISRTPEVTCVVVDVSHEDPEVKFNWYVDGVEVHNAKTKPREEQYNSTYRVVSVLTVLHQDWLNGKEYKCKVSNKALGAPIEKTISKAKGQPREPQVYTLPPSRDELTKNQVSLTCLVKGFYPSDIAVEWFYDDSKLTNYKTTPPVLDSDGSFFLYSKLTVDKSRWQPRGLFACEVMHEALHNHYTYKLLGESPGK	0.08 µM	1 µM
42.8.9 (Fc fusion, bivalent; P329G+LALA) APEAAGGPSVFLFPPKPKDTLMISRTPEVTCVVVDVSHEDPEVKFNWYVDGVEVHNAKTKPREEQYNSTYRVVSVLTVLHQDWLNGKEYKCKVSNKALGAPIEKTISKAKGQPREPQVYTLPPSRDELTKNQVSLTCLVKGFYPSDIAVEWFSGGSKESNYKTTPPVLDSDGSFFLYSKLTVDKSRWQQGNLFACEVMHEALHNHYTYKLLSLSPGK	1.85 µM	14.3 µM
42.8.10 (Fc fusion, bivalent; P329G+LALA) APEAAGGPSVFLFPPKPKDTLMISRTPEVTCVVVDVSHEDPEVKFNWYVDGVEVHNAKTKPREEQYNSTYRVVSVLTVLHQDWLNGKEYKCKVSNKALGAPIEKTISKAKGQPREPQVYTLPPSRDELTKNQVSLTCLVKGFYPSDIAVEWFSGGSKLNNYKTTPPVLDSDGSFFLYSKLTVDKSRWQQGNLFACEVMHEALHNHYTYKLLSLSPGK	3.76 µM	11.1 µM

Next, values leading:

Kd [1]	Kd [2]	Binder
3.91 µM	9.84 µM	42.8.122 (Fc fusion, bivalent; P329G+LALA) APEAAGGPSVFLFPPKPKDTLMISRTPEVTCVVVDVSHEDPEVKFNWYVDGVEVHNAKTKPREEQYNSTYRVVSVLTVLHQDWLNGKEYKCKVSNKALGAPIEKTISKAKGQPREPQVYTLPPSRDELTKNQVSLTCLVKGFYPSDIAVEWFYGAQKETNYKTTPPVLDSDGSFFLYSKLTVDKSRWQQGNLFACEVMHEALHNHYTYKLLSLSPGK
0.972 µM	6.74 µM	42.8.78 (Fc fusion, bivalent; P329G+LALA) APEAAGGPSVFLFPPKPKDTLMISRTPEVTCVVVDVSHEDPEVKFNWYVDGVEVHNAKTKPREEQYNSTYRVVSVLTVLHQDWLNGKEYKCKVSNKALGAPIEKTISKAKGQPREPQVYTLPPSRDELTKNQVSLTCLVKGFYPSDIAVEWFSEGQKLSNYKTTPPVLDSDGSFFLYSKLTVDKSRWQQGNLFACEVMHEALHNHYTYKLLSLSPGK
5 µM	17.6 µM	42.8.93 (Fc fusion, bivalent; P329G+LALA) APEAAGGPSVFLFPPKPKDTLMISRTPEVTCVVVDVSHEDPEVKFNWYVDGVEVHNAKTKPREEQYNSTYRVVSVLTVLHQDWLNGKEYKCKVSNKALGAPIEKTISKAKGQPREPQVYTLPPSRDELTKNQVSLTCLVKGFYPSDIAVEWFSEASKESNYKTTPPVLDSDGSFFLYSKLTVDKSRWQQGNLFACEVMHEALHNHYTYKLLSLSPGK
0.858 µM	3.14 µM	42.8.129 (Fc fusion, bivalent; P329G+LALA) APEAAGGPSVFLFPPKPKDTLMISRTPEVTCVVVDVSHEDPEVKFNWYVDGVEVHNAKTKPREEQYNSTYRVVSVLTVLHQDWLNGKEYKCKVSNKALGAPIEKTISKAKGQPREPQVYTLPPSRDELTKNQVSLTCLVKGFYPSDIAVEWFYGASKESNYKTTPPVLDSDGSFFLYSKLTVDKSRWQQGNLFACEVMHEALHNHYTYKLLSLSPGK
2.71 µM	13.4 µM	42.8.72 (Fc fusion, bivalent; P329G+LALA) APEAAGGPSVFLFPPKPKDTLMISRTPEVTCVVVDVSHEDPEVKFNWYVDGVEVHNAKTKPREEQYNSTYRVVSVLTVLHQDWLNGKEYKCKVSNKALGAPIEKTISKAKGQPREPQVYTLPPSRDELTKNQVSLTCLVKGFYPSDIAVEWFSDDSKLSNYKTTPPVLDSDGSFFLYSKLTVDKSRWQQGNLFACEVMHEALHNHYTYKLLSLSPGK
1.88 µM	19.1 µM	42.8.111 (Fc fusion, bivalent; P329G+LALA) APEAAGGPSVFLFPPKPKDTLMISRTPEVTCVVVDVSHEDPEVKFNWYVDGVEVHNAKTKPREEQYNSTYRVVSVLTVLHQDWLNGKEYKCKVSNKALGAPIEKTISKAKGQPREPQVYTLPPSRDELTKNQVSLTCLVKGFYPSDIAVEWFYGGQKESNYKTTPPVLDSDGSFFLYSKLTVDKSRWQQGNLFACEVMHEALHNHYTYKLLSLSPGK
3.07 µM	28.6 µM	42.8.79 (Fc fusion, bivalent; P329G+LALA) APEAAGGPSVFLFPPKPKDTLMISRTPEVTCVVVDVSHEDPEVKFNWYVDGVEVHNAKTKPREEQYNSTYRVVSVLTVLHQDWLNGKEYKCKVSNKALGAPIEKTISKAKGQPREPQVYTLPPSRDELTKNQVSLTCLVKGFYPSDIAVEWFSEGSKENNYKTTPPVLDSDGSFFLYSKLTVDKSRWQQGNLFACEVMHEALHNHYTYKLLSLSPGK
2.38 µM	13.6 µM	42.8.80 (Fc fusion, bivalent; P329G+LALA) APEAAGGPSVFLFPPKPKDTLMISRTPEVTCVVVDVSHEDPEVKFNWYVDGVEVHNAKTKPREEQYNSTYRVVSVLTVLHQDWLNGKEYKCKVSNKALGAPIEKTISKAKGQPREPQVYTLPPSRDELTKNQVSLTCLVKGFYPSDIAVEWFSEGSKETNYKTTPPVLDSDGSFFLYSKLTVDKSRWQQGNLFACEVMHEALHNHYTYKLLSLSPGK
